According to patent publication US20050170434:

Molecular target: p38 MAPK, Q16539
Sequence (Q16539 2-360): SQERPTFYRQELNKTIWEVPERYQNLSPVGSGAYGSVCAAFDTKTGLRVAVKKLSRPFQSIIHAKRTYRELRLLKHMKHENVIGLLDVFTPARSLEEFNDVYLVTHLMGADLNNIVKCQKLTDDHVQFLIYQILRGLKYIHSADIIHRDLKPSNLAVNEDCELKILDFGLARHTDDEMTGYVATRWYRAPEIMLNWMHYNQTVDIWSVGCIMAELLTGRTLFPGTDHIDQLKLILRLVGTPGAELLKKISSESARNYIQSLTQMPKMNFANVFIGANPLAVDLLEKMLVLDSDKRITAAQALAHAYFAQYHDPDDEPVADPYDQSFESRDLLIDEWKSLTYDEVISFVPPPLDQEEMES

B1: MKK3b (WT) (protein)
chain: MESPASSQPASMPQSKGKSKRKKDLRISCMSKPPAPNPTPPRNLDSRTFITIGDRNFEVEADDLVTISELGRGAYGVVEKVRHAQSGTIMAVKRIRATVNSQEQKRLLMDLDINMRTVDCFYTVTFYGALFREGDVWICMELMDTSLDKFYRKVLDKNMTIPEDILGEIAVSIVRALEHLHSKLSVIHRDVKPSNVLINKEGHVKMCDFGISGYLVDSVAKTMDAGCKPYMAPERINPELNQKGYNVKSDVWSLGITMIEMAILRFPYESWGTPFQQLKQVVEEPSPQLPADRFSPEFVDFTAQCLRKNPAERMSYLELMEHPFFTLHKTKKTDIAAFVKEILGEDS
p38 phosphorylation (western blot using anti-phospho-p38 antibodies): in MKK3b (WT)-infected cells, the basal level of phosphorylated p38 protein dramatically increased compared with the basal level in cells infected with vector (TICD8)
